Measured values from the Human Domainome abundance scans (Beltran et al. 2025).
± gives the uncertainty stated by the source.

B1: Membrane-associated guanylate kinase, WW and PDZ domain-containing protein 1, residues 352 to 401; numbered along this chain, Q96QZ7 (parent)
chain: TEELDSELELPAGWEKIEDPVYGIYYVDHINRKTQYENPVLEAKRKKQLE

Variants of: B1
Assay: abundance fitness (aPCA) (normalised: wild type 0, dead -1); higher = more abundant; growth selection in yeast, the domain comes from the species named
Conditions: Homo sapiens

Abundance fitness, by site and new letter:
H29: S -0.26 ± 0.064, E -0.354 ± 0.081, V -0.207 ± 0.038, T 0.016 ± 0.064, F -0.682 ± 0.14, P -0.515 ± 0.057, L -0.156 ± 0.042, M -0.386 ± 0.057, Q -0.465 ± 0.086, N -0.01 ± 0.082, D -0.535 ± 0.091, W -0.439 ± 0.049, K -0.157 ± 0.071, A -0.229 ± 0.056, R -0.217 ± 0.043, G -0.317 ± 0.042, C -0.502 ± 0.095
N31: L -0.325 ± 0.041, E -0.396 ± 0.069, W -0.843 ± 0.13, V -0.756 ± 0.055, G 0.009 ± 0.04, S -0.135 ± 0.064, T -0.134 ± 0.063, Y -0.671 ± 0.085, I -0.802 ± 0.16, Q -0.388 ± 0.12, C -0.123 ± 0.077, F -0.784 ± 0.15, P -0.663 ± 0.071, A -0.188 ± 0.051, K -0.265 ± 0.093, R -0.201 ± 0.061, H -0.069 ± 0.075, M -0.444 ± 0.088, D -0.28 ± 0.055
I24: P -0.057 ± 0.055, H -0.64 ± 0.22, A -0.323 ± 0.07, G -0.208 ± 0.06, Y -0.569 ± 0.14, L -0.223 ± 0.059, C -0.22 ± 0.065, S -0.144 ± 0.074, F 0.015 ± 0.45, K -0.238 ± 0.097, Q -0.225 ± 0.1, D -0.387 ± 0.16, V -0.066 ± 0.06, E 0.067 ± 0.082, R -0.203 ± 0.042, W -0.344 ± 0.07, T 0.039 ± 0.047
V27: M 0.038 ± 0.068, W -0.242 ± 0.053, P -0.394 ± 0.055, N -0.34 ± 0.12, A -0.096 ± 0.06, G -0.378 ± 0.04, K 0.044 ± 0.062, E -0.229 ± 0.056, T -0.26 ± 0.042, D 0.071 ± 0.084, L -0.073 ± 0.062, H -0.307 ± 0.061, Q -0.227 ± 0.087, C -0.055 ± 0.062, R -0.069 ± 0.044, I -0.178 ± 0.098
T34: E -0.316 ± 0.083, H -0.407 ± 0.09, L -0.603 ± 0.079, F -0.387 ± 0.079, N -0.237 ± 0.083, K -0.219 ± 0.088, Y -0.324 ± 0.089, I -0.502 ± 0.076, V -0.232 ± 0.045, D -0.414 ± 0.094, C 0.042 ± 0.074, S -0.11 ± 0.048, Q -0.182 ± 0.072, A -0.413 ± 0.053, W -0.193 ± 0.048, R -0.035 ± 0.05, M -0.265 ± 0.068, G -0.453 ± 0.061
Y36: A -0.102 ± 0.067, D -0.32 ± 0.069, W -0.093 ± 0.06, I -0.185 ± 0.041, L -0.048 ± 0.063, F -0.308 ± 0.085, T -0.041 ± 0.078, K -0.058 ± 0.048, Q -0.134 ± 0.049, M 0.096 ± 0.083, H -0.093 ± 0.043, S -0.086 ± 0.059, E -0.172 ± 0.041, C -0.463 ± 0.08, N -0.176 ± 0.063, V -0.11 ± 0.059, P -0.161 ± 0.046, R 0.059 ± 0.051
E37: L -0.213 ± 0.049, M -0.296 ± 0.07, W -0.47 ± 0.046, V -0.286 ± 0.048, Y -0.611 ± 0.089, P -0.56 ± 0.087, A -0.192 ± 0.053, T -0.177 ± 0.057, D -0.151 ± 0.079, S -0.162 ± 0.042, R -0.401 ± 0.058, N -0.005 ± 0.098, H -0.321 ± 0.11, Q -0.176 ± 0.071, C -0.292 ± 0.051, F -0.438 ± 0.054, K -0.282 ± 0.11, G -0.213 ± 0.044
K33: N -0.169 ± 0.12, Q -0.034 ± 0.046, H -0.463 ± 0.14, A -0.057 ± 0.048, E -0.488 ± 0.083, T -0.158 ± 0.066, L -0.028 ± 0.039, F -0.52 ± 0.15, Y -0.331 ± 0.09, W -0.347 ± 0.051, V -0.028 ± 0.044, G -0.414 ± 0.054, S -0.222 ± 0.059, D -0.066 ± 0.1, M -0.236 ± 0.081, P -0.815 ± 0.13, C -0.074 ± 0.074, I -0.291 ± 0.083
I30: W -0.431 ± 0.072, K -0.078 ± 0.067, Q -0.215 ± 0.047, V -0.064 ± 0.044, S -0.279 ± 0.063, C -0.322 ± 0.077, E -0.079 ± 0.071, F -0.195 ± 0.041, A -0.093 ± 0.041, T -0.256 ± 0.078, Y -0.086 ± 0.1, L -0.082 ± 0.054, P -0.208 ± 0.076, M -0.311 ± 0.088, G -0.203 ± 0.042, D -0.459 ± 0.083, R -0.128 ± 0.038, N -0.397 ± 0.08
Q35: Y -0.15 ± 0.15, F -0.68 ± 0.27, V -0.188 ± 0.056, L -0.423 ± 0.045, D -0.597 ± 0.11, W -0.48 ± 0.055, A -0.26 ± 0.046, N -0.516 ± 0.049
